Results from US20070078092A1 (CUREGENICS, published 2007).
Like-named read-outs stand apart in the source and are kept apart here. Square brackets hold non-standard residues; d marks the D form. Ends that are not written are not given here. * marks the point of attachment. Cholesteryloxycarbonyl = CC(C)CCC[C@@H](C)[C@H]1CC[C@H]2[C@@H]3CC=C4C[C@@H](OC(=O)*)CC[C@]4(C)[C@H]3CC[C@]12C; Lithocholoyl = C[C@H](CCC(=O)*)[C@H]1CC[C@H]2[C@@H]3CC[C@@H]4C[C@H](O)CC[C@]4(C)[C@H]3CC[C@]12C; Biotin = O=C1N[C@H]2[C@H](CS[C@H]2CCCCC(=O)*)N1; Myristoyl = CCCCCCCCCCCCCC(=O)*; hLeu = CC(C)CC[C@H](N)C(=O)O; Orn = NCCC[C@H](N)C(=O)O; Nva = CCC[C@H](N)C(=O)O; Dap = NC[C@H](N)C(=O)O

Experiments:
Assay in all cases: cell-based or functional assay
protein kinase A (PKA) [1] = target: protein kinase A (PKA)
protein kinase B (PKB) [2] = target: protein kinase B (PKB)
protein kinase B (PKB) [3] = target: protein kinase B (PKB); remark: listed apart in the source
protein kinase B (PKB) [4] = target: protein kinase B (PKB); remark: listed apart in the source
protein kinase A (PKA) [5] = target: protein kinase A (PKA); remark: listed apart in the source
protein kinase B (PKB) [6] = target: protein kinase B (PKB); remark: listed apart in the source

Row | Binder | IC50, kinase assay PKA (protein kinase A (PKA) [1]) | IC50, kinase assay PKB (protein kinase B (PKB) [2]) | % Inhibition of PKB activity at 1 µM (protein kinase B (PKB) [3]) | % Inhibition of PKB activity at 10 µM (protein kinase B (PKB) [3]) | IC50, in vitro PKB inhibition (protein kinase B (PKB) [4]) | IC50, kinase assay PKA (protein kinase A (PKA) [5]) | IC50, kinase assay PKB (protein kinase B (PKB) [6])
1 | Cholesteryloxycarbonyl-RPR[Nva]Y[Dap][hLeu]-NH2 (SMILES CCC[C@H](NC(=O)[C@H](CCCNC(=N)N)NC(=O)[C@@H]1CCCN1C(=O)[C@H](CCCNC(=N)N)NC(=O)O[C@H]1CC[C@@]2(C)C(=CC[C@H]3[C@@H]4CC[C@H]([C@H](C)CCCC(C)C)[C@@]4(C)CC[C@@H]32)C1)C(=O)N[C@@H](Cc1ccc(O)cc1)C(=O)N[C@@H](CN)C(=O)N[C@@H](CCC(C)C)C(N)=O) [PTR 6164] | 10000 nM | 700 nM |  |  |  |  | 
2 | [dK][dK][dK][dK][dK][dK][dK][dK]RPR[Nva]Y[Dap][hLeu]-NH2 (N-terminus assumed; SMILES CCC[C@H](NC(=O)[C@H](CCCNC(=N)N)NC(=O)[C@@H]1CCCN1C(=O)[C@H](CCCNC(=N)N)NC(=O)[C@@H](CCCCN)NC(=O)[C@@H](CCCCN)NC(=O)[C@@H](CCCCN)NC(=O)[C@@H](CCCCN)NC(=O)[C@@H](CCCCN)NC(=O)[C@@H](CCCCN)NC(=O)[C@@H](CCCCN)NC(=O)[C@H](N)CCCCN)C(=O)N[C@@H](Cc1ccc(O)cc1)C(=O)N[C@@H](CN)C(=O)N[C@@H](CCC(C)C)C(N)=O) [MPS ab60025-82] |  |  | 78% | 92% | 400 nM |  | 
3 | RQIKIWFQNRRMKWKKRPRXYAX (Nva, Hol of the 6184 part) [MPS ab60025-4] |  |  | 80% | 96% | 200 nM |  | 
4 | RQIKIWFQNRRMKWKKRPRXYXX (Nva, Dap, Hol of the 6154 part) [MPS ab60025-2] |  |  | 60% | 92% | 1000 nM |  | 
5 | Lithocholoyl-GRPR[Nva]YA[hLeu]-NH2 [PTR 6192] |  |  |  |  |  | > 10000 nM | 2500 nM
6 | Myristoyl-GRPR[Nva]Y[Dap][hLeu]-NH2 (SMILES CCCCCCCCCCCCCC(=O)NCC(=O)N[C@@H](CCCNC(=N)N)C(=O)N1CCC[C@H]1C(=O)N[C@@H](CCCNC(=N)N)C(=O)N[C@@H](CCC)C(=O)N[C@@H](Cc1ccc(O)cc1)C(=O)N[C@@H](CN)C(=O)N[C@@H](CCC(C)C)C(N)=O) [PTR 6180] | 20000 nM | 900 nM |  |  |  |  | 
7 | RPR[Nva]Y[Dap][hLeu][dK][dK][dK][dK][dK][dK][dK][dK][dK][dK]-NH2 (N-terminus assumed; SMILES CCC[C@H](NC(=O)[C@H](CCCNC(=N)N)NC(=O)[C@@H]1CCCN1C(=O)[C@@H](N)CCCNC(=N)N)C(=O)N[C@@H](Cc1ccc(O)cc1)C(=O)N[C@@H](CN)C(=O)N[C@@H](CCC(C)C)C(=O)N[C@H](CCCCN)C(=O)N[C@H](CCCCN)C(=O)N[C@H](CCCCN)C(=O)N[C@H](CCCCN)C(=O)N[C@H](CCCCN)C(=O)N[C@H](CCCCN)C(=O)N[C@H](CCCCN)C(=O)N[C@H](CCCCN)C(=O)N[C@H](CCCCN)C(=O)N[C@H](CCCCN)C(N)=O) [MPS ab60025-49] |  |  | 97% | 99% | 40 nM |  | 
8 | [dR][dR][dR][dR][dR][dR][dR]RPR[Nva]Y[Dap][hLeu]-NH2 (N-terminus assumed; SMILES CCC[C@H](NC(=O)[C@H](CCCNC(=N)N)NC(=O)[C@@H]1CCCN1C(=O)[C@H](CCCNC(=N)N)NC(=O)[C@@H](CCCNC(=N)N)NC(=O)[C@@H](CCCNC(=N)N)NC(=O)[C@@H](CCCNC(=N)N)NC(=O)[C@@H](CCCNC(=N)N)NC(=O)[C@@H](CCCNC(=N)N)NC(=O)[C@@H](CCCNC(=N)N)NC(=O)[C@H](N)CCCNC(=N)N)C(=O)N[C@@H](Cc1ccc(O)cc1)C(=O)N[C@@H](CN)C(=O)N[C@@H](CCC(C)C)C(N)=O) [MPS ab60025-94] |  |  | 76% | 92% | 400 nM |  | 
9 | Lauryl-RPR[Nva]Y[Dap][hLeu]-NH2 [PTR 6160] |  |  |  |  |  | 50000 nM | 8000 nM
10 | Lithocholoyl-RPR[Nva]YA[hLeu]-NH2 (SMILES CCC[C@H](NC(=O)[C@H](CCCNC(=N)N)NC(=O)[C@@H]1CCCN1C(=O)[C@H](CCCNC(=N)N)NC(=O)CC[C@@H](C)[C@H]1CC[C@H]2[C@@H]3CC[C@@H]4C[C@H](O)CC[C@]4(C)[C@H]3CC[C@]12C)C(=O)N[C@@H](Cc1ccc(O)cc1)C(=O)N[C@@H](C)C(=O)N[C@@H](CCC(C)C)C(N)=O) [PTR 6194] |  |  |  |  |  | > 10000 nM | 2000 nM
11 | Biotin-RPR[Nva]Y[Dap][hLeu]-NH2 [PTR 6158] |  |  |  |  |  | > 100000 nM | 1000 nM
12 | [dK][dK][dK][dK][dK][dK][dK][dK][dK][dK]RPR[Nva]Y[Dap][hLeu]-NH2 (N-terminus assumed; SMILES CCC[C@H](NC(=O)[C@H](CCCNC(=N)N)NC(=O)[C@@H]1CCCN1C(=O)[C@H](CCCNC(=N)N)NC(=O)[C@@H](CCCCN)NC(=O)[C@@H](CCCCN)NC(=O)[C@@H](CCCCN)NC(=O)[C@@H](CCCCN)NC(=O)[C@@H](CCCCN)NC(=O)[C@@H](CCCCN)NC(=O)[C@@H](CCCCN)NC(=O)[C@@H](CCCCN)NC(=O)[C@@H](CCCCN)NC(=O)[C@H](N)CCCCN)C(=O)N[C@@H](Cc1ccc(O)cc1)C(=O)N[C@@H](CN)C(=O)N[C@@H](CCC(C)C)C(N)=O) [MPS ab60025-50] |  |  | 93% | 98% | 80 nM |  | 
13 | {S‑carbofluorescin}-RPR[Nva]Y[Dap][hLeu]-NH2 [PTR 6182] |  |  |  |  |  | > 10000 nM | 3000 nM

Now from value to binder:

Row | IC50, kinase assay PKA (protein kinase A (PKA) [1]) | IC50, kinase assay PKB (protein kinase B (PKB) [2]) | % Inhibition of PKB activity at 1 µM (protein kinase B (PKB) [3]) | % Inhibition of PKB activity at 10 µM (protein kinase B (PKB) [3]) | IC50, in vitro PKB inhibition (protein kinase B (PKB) [4]) | IC50, kinase assay PKA (protein kinase A (PKA) [5]) | IC50, kinase assay PKB (protein kinase B (PKB) [6]) | Binder
14 | 5000 nM | 500 nM |  |  |  |  |  | Cholesteryloxycarbonyl-RPR[Nva]YA[hLeu]-NH2 (SMILES CCC[C@H](NC(=O)[C@H](CCCNC(=N)N)NC(=O)[C@@H]1CCCN1C(=O)[C@H](CCCNC(=N)N)NC(=O)O[C@H]1CC[C@@]2(C)C(=CC[C@H]3[C@@H]4CC[C@H]([C@H](C)CCCC(C)C)[C@@]4(C)CC[C@@H]32)C1)C(=O)N[C@@H](Cc1ccc(O)cc1)C(=O)N[C@@H](C)C(=O)N[C@@H](CCC(C)C)C(N)=O) [PTR 6196]
15 | 10000 nM | 800 nM | 65% | 93% | 800 nM |  |  | [dR][dR][dR][dR][dR][dR][dR][dR][dR]GRPR[Nva]YA[hLeu]-NH2 (N-terminus assumed; SMILES CCC[C@H](NC(=O)[C@H](CCCNC(=N)N)NC(=O)[C@@H]1CCCN1C(=O)[C@H](CCCNC(=N)N)NC(=O)CNC(=O)[C@@H](CCCNC(=N)N)NC(=O)[C@@H](CCCNC(=N)N)NC(=O)[C@@H](CCCNC(=N)N)NC(=O)[C@@H](CCCNC(=N)N)NC(=O)[C@@H](CCCNC(=N)N)NC(=O)[C@@H](CCCNC(=N)N)NC(=O)[C@@H](CCCNC(=N)N)NC(=O)[C@@H](CCCNC(=N)N)NC(=O)[C@H](N)CCCNC(=N)N)C(=O)N[C@@H](Cc1ccc(O)cc1)C(=O)N[C@@H](C)C(=O)N[C@@H](CCC(C)C)C(N)=O) [PTR 6252]
16 |  |  |  |  |  | > 10000 nM | 300 nM | {H‑1‑adamantyl}-RPR[Nva]YA[hLeu]-NH2 [PTR 6200]
17 |  |  |  |  |  | > 10000 nM | 300 nM | RPR[Nva]YA[hLeu]-NH2 (not fully specified (N-terminus)) [PTR 6202]
18 |  |  |  |  |  | 8000 nM | 5000 nM | {Galactopyranosyl‑O‑CO}-RPR[Nva]YA[hLeu]-NH2 [PTR 6224]
19 | 5000 nM | 500 nM |  |  |  |  |  | Cholesteryloxycarbonyl-GRPR[Nva]YA[hLeu]-NH2 (SMILES CCC[C@H](NC(=O)[C@H](CCCNC(=N)N)NC(=O)[C@@H]1CCCN1C(=O)[C@H](CCCNC(=N)N)NC(=O)CNC(=O)O[C@H]1CC[C@@]2(C)C(=CC[C@H]3[C@@H]4CC[C@H]([C@H](C)CCCC(C)C)[C@@]4(C)CC[C@@H]32)C1)C(=O)N[C@@H](Cc1ccc(O)cc1)C(=O)N[C@@H](C)C(=O)N[C@@H](CCC(C)C)C(N)=O) [PTR 6198]
20 | 10000 nM | 3000 nM |  |  |  |  |  | {Vitamin E succinate}-RPR[Nva]Y[Dap][hLeu]-NH2 [PTR 6244]
21 | > 5000 nM | 1000 nM |  |  |  |  |  | Cholesteryloxycarbonyl-RPR[Orn]E(Aminoethylsulfonamidoisoquinoline)SF-NH2 [PTR 6260]
22 |  |  |  |  |  |  | 1000 nM | {VitE‑Succinate}-RPR[Nva]YA[hLeu]-NH2 [PTR 6242]
